According to patent publication US20240117038A1 (Ablynx, published 2024):
Positions count from the first letter of the chain named. In names and notes the source's numbering stands. Blank lines part the entries; values can stand above or below the binder they belong to.

Columns and labels:
cynomolgus CX3CR1 [1] = biological target: T1, cynomolgus CX3CR1 (cynomolgus monkey (Macaca fascicularis), UniProt P49238 1-355 (human entry)); assay: flow cytometry on CHO K1 cyCX3CR1 cells, 30 uM HSA
T1 construct: Overexpressed on CHO K1 cells; also called cyno CX3CR1; cyCX3CR1
T1 chain: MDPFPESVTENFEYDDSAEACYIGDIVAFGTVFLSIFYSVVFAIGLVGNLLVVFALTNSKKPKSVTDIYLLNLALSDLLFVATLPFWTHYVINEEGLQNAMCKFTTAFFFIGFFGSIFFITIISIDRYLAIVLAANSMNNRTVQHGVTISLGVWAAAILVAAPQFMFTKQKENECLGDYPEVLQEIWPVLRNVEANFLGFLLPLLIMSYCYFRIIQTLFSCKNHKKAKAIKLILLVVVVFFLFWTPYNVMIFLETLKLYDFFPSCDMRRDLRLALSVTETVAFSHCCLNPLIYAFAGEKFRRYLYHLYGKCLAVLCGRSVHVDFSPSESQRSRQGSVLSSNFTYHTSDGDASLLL
Protocol: (§1) CHO cells overexpressing human or cynomolgus CX3CR1 were generated using techniques known in the art. Cells were harvested and resuspended in assay buffer (PBS, 2% FBS, 0.05% NaN3) and seeded separately in 384-well Bio-One V-bottom plates (Greiner, Cat. No. 781280), with a total of 2E04 cells seeded per well. After washing, serial dilutions of multivalent ISVD construct (starting from 250 nM, 3-fold dilution, 11 points, diluted in assay buffer), were added and incubated for 4 hours at 4° C. Binding was performed in the presence of 30 uM HSA (Sigma-Aldrich, Cat. No. A8763). Plates were then washed 3 times and cells were incubated with an anti-VHH mouse antibody (3300-fold diluted in assay buffer) for 30 minutes at 4′° C. […] Plates were finally washed 3 times and cells were resuspended in PI (Miltenyi Biotec, Cat. No. 130-093-233, 1000-fold diluted in assay buffer). Cell suspensions were analyzed with iQue Screener PLUS (Intellicyt). EC50s were estimated by dose response modelling. Curves were fit using 4 parameter logistic regression in GraphPad (GraphPad Software Inc.). A purified anti-human CX3CR1 antibody [K0124E1] (BioLegend, Cat. No. 355701/355702) was used as positive control to detect CX3CR1 expression on the cell surface.

human CX3CR1 [2] = biological target: T2, human CX3CR1 (human, UniProt P49238 1-355); assay: flow cytometry on CHO K1 huCX3CR1 cells, 30 uM HSA
T2 construct: Overexpressed on CHO K1, Ba/F3 or HEK293T cells; also called huCX3CR1; hCX3CR1
T2 sequence: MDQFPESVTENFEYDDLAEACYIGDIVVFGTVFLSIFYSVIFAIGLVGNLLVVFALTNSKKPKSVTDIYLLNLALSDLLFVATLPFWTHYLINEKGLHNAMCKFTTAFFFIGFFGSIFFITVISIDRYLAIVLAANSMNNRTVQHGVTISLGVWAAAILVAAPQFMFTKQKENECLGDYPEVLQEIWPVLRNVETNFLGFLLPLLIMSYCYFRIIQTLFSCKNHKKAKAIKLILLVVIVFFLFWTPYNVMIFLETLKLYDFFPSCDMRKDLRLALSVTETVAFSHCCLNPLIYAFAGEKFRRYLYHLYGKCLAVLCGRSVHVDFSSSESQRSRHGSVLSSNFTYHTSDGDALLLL
Protocol: as §1

cynomolgus CX3CR1 [3] = biological target: T1, cynomolgus CX3CR1; assay: competition flow cytometry vs soluble huCX3CL1-AF647 on CHO K1 cyCX3CR1 cells, 30 uM HSA
human CX3CR1 [4] = biological target: T2, human CX3CR1; assay: competition flow cytometry vs soluble huCX3CL1-AF647 on CHO K1 huCX3CR1 cells, 30 uM HSA

B1: A041600010 (VHH)
chain: DVQLVESGGGSVQPGGSLRLSCAASGSIFSSTAMAWYRQAPGKRRDLVAAINTVGVTKYADSVKGRFTISRDNAKNTVYLQMNSLRPEDTALYYCTSDPRRGWDTRYWGQGTLVTVSSGGGGSGGGSEVQLVESGGGVVQPGGSLRLSCAASGFTFRSFGMSWVRQAPGKGPEWVSSISGSGSDTLYADSVKGRFTISRDNSKNTLYLQMNSLRPEDTALYYCTIGGSLSRSSQGTLVTVSSGGGGSGGGSEVQLVESGGGSVQPGGSLRLSCAASGSIFSSTAMAWYRQAPGKRRDLVAAINTVGVTKYADSVKGRFTISRDNAKNTVYLQMNSLRPEDTALYYCTSDPRRGWDTRYWGQGTLVTVSSA
notes: Trivalent ISVD construct (two anti-CX3CR1 ISVDs, one anti-albumin ISVD); also called 66B02_SO (E1D)-9GS-ALB23002-9GS-66B02_SO-A
EC50 (cynomolgus CX3CR1 [1]): 0.46 nM
top (cynomolgus CX3CR1 [1]): 214000
EC50 (human CX3CR1 [2]): 0.41 nM
top (human CX3CR1 [2]): 22800
% inhibition (cynomolgus CX3CR1 [3]): 113%
IC50 (cynomolgus CX3CR1 [3]): 2.4 nM
% inhibition (human CX3CR1 [4]): 94%
IC50 (human CX3CR1 [4]): 3.8 nM

B3: A041600011 (VHH)
chain: DVQLVESGGGSVQPGGSLRLSCAASGSIFSSTAMAWYRQAPGKRRDLVAAINTVGVTKYADSVKGRFTISRDNAKNTVYLQMNSLRPEDTALYYCTSDPRRGWDTRYWGQGTLVTVSSGGGGSGGGSEVQLVESGGGSVQPGGSLRLSCAASGSIFSSTAMAWYRQAPGKRRDLVAAINTVGVTKYADSVKGRFTISRDNAKNTVYLQMNSLRPEDTALYYCTSDPRRGWDTRYWGQGTLVTVSSGGGGSGGGSEVQLVESGGGVVQPGGSLRLSCAASGFTFRSFGMSWVRQAPGKGPEWVSSISGSGSDTLYADSVKGRFTISRDNSKNTLYLQMNSLRPEDTALYYCTIGGSLSRSSQGTLVTVSSA
notes: Trivalent ISVD construct (two anti-CX3CR1 ISVDs, one anti-albumin ISVD), C-terminal alanine included in the entry; also called 66B02_SO (E1D)-9GS-66B02_SO-9GS-ALB23002-A
EC50 (cynomolgus CX3CR1 [1]): 0.11 nM
top (cynomolgus CX3CR1 [1]): 331000
EC50 (human CX3CR1 [2]): 0.079 nM
top (human CX3CR1 [2]): 44200
% inhibition (cynomolgus CX3CR1 [3]): 111%
IC50 (cynomolgus CX3CR1 [3]): 1.2 nM
% inhibition (human CX3CR1 [4]): 94%
IC50 (human CX3CR1 [4]): 0.66 nM

More lines, now with the values ahead:

EC50 (cynomolgus CX3CR1 [1]): 0.32 nM
top (cynomolgus CX3CR1 [1]): 300000
EC50 (human CX3CR1 [2]): 0.3 nM
top (human CX3CR1 [2]): 31300
% inhibition (cynomolgus CX3CR1 [3]): 105%
IC50 (cynomolgus CX3CR1 [3]): 1.2 nM
% inhibition (human CX3CR1 [4]): 96%
IC50 (human CX3CR1 [4]): 2.1 nM
B2: A041600031 (VHH)
chain: B1 chain with R295Q, A301V, N303S, V307I, P350A
notes: Trivalent ISVD construct (two anti-CX3CR1 ISVDs, one anti-albumin ISVD), C-terminal alanine included in the entry; also called 66B02_SO (E1D)-9GS-ALB23002-9GS-54A12_SO-A

EC50 (cynomolgus CX3CR1 [1]): 0.14 nM
top (cynomolgus CX3CR1 [1]): 363000
EC50 (human CX3CR1 [2]): 0.1 nM
top (human CX3CR1 [2]): 42200
% inhibition (cynomolgus CX3CR1 [3]): 117%
IC50 (cynomolgus CX3CR1 [3]): 0.62 nM
% inhibition (human CX3CR1 [4]): 101%
IC50 (human CX3CR1 [4]): 0.99 nM
B4: A041600040 (VHH)
chain: B3 chain with R171Q, A177V, N179S, V183I, P226A
notes: Trivalent ISVD construct (two anti-CX3CR1 ISVDs, one anti-albumin ISVD), C-terminal alanine included in the entry; also called 66B02_SO (E1D)-9GS-54A12_SO-9GS-ALB23002-A

EC50 (cynomolgus CX3CR1 [1]): 0.12 nM
top (cynomolgus CX3CR1 [1]): 373000
EC50 (human CX3CR1 [2]): 0.13 nM
top (human CX3CR1 [2]): 40000
% inhibition (cynomolgus CX3CR1 [3]): 104%
IC50 (cynomolgus CX3CR1 [3]): 0.67 nM
% inhibition (human CX3CR1 [4]): 95%
IC50 (human CX3CR1 [4]): 1.4 nM
B5: A041600042 (VHH)
chain: DVQLVESGGGSVQPGGSLRLSCAASGSIFSSTAMAWYRQAPGKRRDLVAAINTVGVTKYADSVKGRFTISRDNAKNTVYLQMNSLRPEDTALYYCTSDPRRGWDTRYWGQGTLVTVSSGGGGSGGGGSGGGGSGGGGSEVQLVESGGGSVQPGGSLRLSCAASGSIFSSTAMAWYRQAPGKRRDLVAAINTVGVTKYADSVKGRFTISRDNAKNTVYLQMNSLRPEDTALYYCTSDPRRGWDTRYWGQGTLVTVSSGGGGSGGGGSGGGGSGGGGSEVQLVESGGGVVQPGGSLRLSCAASGFTFRSFGMSWVRQAPGKGPEWVSSISGSGSDTLYADSVKGRFTISRDNSKNTLYLQMNSLRPEDTALYYCTIGGSLSRSSQGTLVTVSSA
notes: Trivalent ISVD construct (two anti-CX3CR1 ISVDs, one anti-albumin ISVD), C-terminal alanine included in the entry; also called 66B02_SO (E1D)-20GS-66B02_SO-20GS-ALB23002-A
